The source of these data is article PMC3193169 (BMC Biotechnology, 2011).

Common to all, as to settings: both partners purified
Experiment [1] has as its target Staphylococcus aureus enterotoxin B (SEB) toxin (Staphylococcus aureus, strain , UniProt P01552). As to the kind of experiment: SPR. On the technique in general: In SPR one partner is held on a chip, and binding of the other changes the refractive index at the surface.
Experiment [2] addresses Shiga Toxin 1 (STX-1) (Stx1 (phage H30 of Escherichia coli), …, UniProt P10149;P69178). The experiment in a line: Luminex fluid array direct binding assay.
Experiment [3] deals with staphylococcal enterotoxin D (SED) (Staphylococcus aureus, strain , UniProt P20723). The experiment in a line: Luminex fluid array direct binding assay.
Experiment [4] concerns the target staphylococcal enterotoxin A (SEA) (Staphylococcus aureus, strain , UniProt P0A0L2). As to the kind of experiment: Luminex fluid array direct binding assay.

Several values for one entry are separate records, joined by “and”; a condition that tells them apart may be missing. Identical values can stand only once.

As a reminder, the koff is a measure of how fast the partners let go of each other. For orientation: kon means a measure of how fast the partners come together. By Kd is commonly meant a measure of binding affinity in units of concentration. Read a low Kd as a tighter complex.

Chain of Shiga Toxin 1 (STX-1) (P10149 23-315, chain 1 of 2): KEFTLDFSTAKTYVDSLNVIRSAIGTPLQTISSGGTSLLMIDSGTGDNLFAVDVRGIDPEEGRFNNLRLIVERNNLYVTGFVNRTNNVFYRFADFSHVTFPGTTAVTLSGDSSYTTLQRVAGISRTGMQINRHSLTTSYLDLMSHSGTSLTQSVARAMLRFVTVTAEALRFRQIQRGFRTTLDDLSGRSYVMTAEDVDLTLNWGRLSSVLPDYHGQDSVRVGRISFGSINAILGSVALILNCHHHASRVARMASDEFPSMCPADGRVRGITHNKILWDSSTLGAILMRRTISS
Chain of Shiga Toxin 1 (STX-1) (P69178 21-89, chain 2 of 2): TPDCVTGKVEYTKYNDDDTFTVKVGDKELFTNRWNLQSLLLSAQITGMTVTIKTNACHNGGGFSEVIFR

B1: anti-SEB single domain antibody (sdAb) A3 (VHH)
VHH: EVQLVESGGGLVQAGDSLRLSCTASGRTFSRAVMGWFRQAPGKEREFVAAISAAPGTAYYAFYADSVRGRFSISADSAKNTVYLQMNSLKPEDTAVYYCAADLKMQVAAYMNQRSVDYWGQGTQVTVSS
Turning to B1, in experiment [1], the koff was 6e-05 s⁻¹ and 2.2e-05 s⁻¹; the kon was 100000 M⁻¹ s⁻¹ and 290000 M⁻¹ s⁻¹.

B2: biotinylated sdAb A3 (VHH)
VHH: EVQLVESGGGLVQAGDSLRLSCTASGRTFSRAVMGWFRQAPGKEREFVAAISAAPGTAYYAFYADSVRGRFSISADSAKNTVYLQMNSLKPEDTAVYYCAADLKMQVAAYMNQRSVDYWGQGTQVTVSS
With B2, the binding result in experiment [2], in experiment [3] and in experiment [4] was “no binding” each time. In experiment [1], the dissociation constant (Kd) turned out to be 0.39 nM. In experiment [1], this molecule showed a koff of 2.8e-05 s⁻¹. In addition, the kon in experiment [1] came to 72000 M⁻¹ s⁻¹.
